The source of these data is paper PMC2671599, “Intraflagellar Transport (IFT) Protein IFT25 Is a Phosphoprotein Component of IFT Complex B and Physically Interacts with IFT27 in Chlamydomonas” (PLoS ONE, 2009).

Assay [1] deals with T1, GST-IFT27 (Chlamydomonas reinhardtii …, UniProt A8HN58).
T1 chain: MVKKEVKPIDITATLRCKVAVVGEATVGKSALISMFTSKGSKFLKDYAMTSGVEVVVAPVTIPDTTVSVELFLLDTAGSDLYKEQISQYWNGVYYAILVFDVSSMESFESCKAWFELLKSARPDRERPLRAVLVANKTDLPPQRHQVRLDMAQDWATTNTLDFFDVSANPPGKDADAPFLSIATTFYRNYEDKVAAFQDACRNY
The assay can be described thus: pull-down (GST and amylose resin).

In assay [2] the target is T2, GST-IFT27 (Chlamydomonas reinhardtii, UniProt A8HN58 1-204).
T2 construct: IFT27, Rab-like small GTPase component of IFT complex B, Chlamydomonas reinhardtii; also called GST-tagged IFT27; source: E. coli BL21 (DE3) pLysE, pGEX-2T-IFT27, purified (Glutathione Sepharose 4B, eluted with reduced glutathione)
T2 sequence (looked up): T1 chain
The assay can be described thus: pull-down; GST-IFT27 (~2 ug) on Glutathione Sepharose 4B beads, incubated 1 hour with MBP-IFT25 (~2 ug), MBP-IFT25 plus MBP, or MBP (2 ug); 1xHMDEK, 4 C; supernatant and pellet on SDS-PAGE, Coomassie and immunoblot. To be noted: both partners purified.

B1: MBP-IFT25 (natural protein, Chlamydomonas reinhardtii, UniProt B8LIX8 1-189, looked up)
chain: MKDYAREENGGLVVMASCSDERFPPENMLDGKDNTFWVTTGMFPQEFVLRLESCIRVSKITTLSLNVRKLAVEKCDQDKPDQFEKVFEVELANRGDRLQTEVHQVNIRAKYLKFILLQGHGEFATVNRVSVVGGDDDGGGYDEPGGGYGSMQRQPSMGYGGGGGSAATGFAADPGNAAAGGGGGFEDEF
notes: IFT25 (Flagellar Associated Protein FAP232) of Chlamydomonas reinhardtii; cDNA of 570 nucleotides, predicted about 20 kD; the 3' end of the FAP232 gene model was predicted incorrectly, the corrected cDNA is GenBank EF593953; Details of vector construction are 'available upon request'; also called MBP-tagged IFT25; FAP232; source: E. coli BL21 (DE3) pLysE, pMAL-c2-IFT25, purified (amylose resin, …)
B1: the binding result with GST-IFT27 [1] and with GST-IFT27 [2] was “binds” in each case.
